According to patent US5470740:

Tested on: NsiI restriction endonuclease (Neisseria sicca BRL 397)
Assay: cleavage_in_vitro
Details: crude sonicated extract, REact 3 buffer, 37 C, 1 h; each of pUC123 and pUC140

lambda DNA showed an activity (units/g cells) greater than 26000.
